Source: patent publication US11472855, “RNA-binding protein” (Panitch Schwarze Belisario & Nadel LLP)
Numbering of substitutions follows the chain as printed.

Columns and labels:
[1] = system: hPUF_MT(R5:G_13R)3(R6:U_13R)3 Y13R in the R6:U repeats; test: EMSA; conditions: text inconsistent: number 2 greater but prints Tyr>Arg
[2] = system: hPUF_MT(R5:A_13R)3(R6:G_13R)3 Y13R in the R6:G repeats; test: EMSA; conditions: 13Y at least 30 times greater
[3] = system: hPUF_MT(R5:C_13R)3(R6:U_13R)3 Y13R in the R6:U repeats; test: EMSA
[4] = system: hPUF_MT(R5:G_13R)(R5:G_13Y)2(R6:U_13Y)3 R13Y in the second and third R5 repeats (Homo sapiens); test: EMSA; conditions: FIG. 61; Arg>Tyr between G and U; 4 C; construct name in text appears misprinted as A/G version
[5] = system: hPUF_MT(R5:A_13R)3(R6:U_13R)3 Y13R in the R6 repeats; test: EMSA; conditions: 13Y at least 30 times greater
[6] = system: hPUF_MT(R5:A_13R)3(R6:C_13R)3 Y13R in the R6:C repeats; test: EMSA; conditions: 13Y about 3 times greater
[7] = target: T1, hPUF_MT(R2_N12S,Q16R, R3→R5, R4→R6) (R2 repeat N12S,Q16R); test: EMSA; binds C exclusively; conditions: label: Alexa680 at 5' and 3'
T1 chain: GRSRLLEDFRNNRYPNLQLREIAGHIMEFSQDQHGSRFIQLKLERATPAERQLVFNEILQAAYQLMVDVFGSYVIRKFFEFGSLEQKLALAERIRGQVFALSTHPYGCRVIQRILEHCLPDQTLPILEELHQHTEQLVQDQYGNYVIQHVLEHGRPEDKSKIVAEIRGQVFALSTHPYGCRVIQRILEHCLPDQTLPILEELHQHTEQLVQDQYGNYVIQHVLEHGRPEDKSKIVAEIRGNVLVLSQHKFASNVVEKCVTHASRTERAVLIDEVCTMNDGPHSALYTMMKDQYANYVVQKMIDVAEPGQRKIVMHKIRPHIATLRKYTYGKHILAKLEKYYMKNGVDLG

[8] = target: T2, hPUF_MT(R2_N12S,Q16E, R3→R5, R4→R6) (R2 repeat N12S,Q16E); test: EMSA; binds G exclusively; conditions: label: Alexa680 at 5' and 3'
T2 chain: T1 chain with R76E

[9] = target: T3, hPUF_MT(R5:G_13R)3(R6:C_13Y)3; test: EMSA; conditions: label: Alexa680 at 5' and 3'
T3 chain: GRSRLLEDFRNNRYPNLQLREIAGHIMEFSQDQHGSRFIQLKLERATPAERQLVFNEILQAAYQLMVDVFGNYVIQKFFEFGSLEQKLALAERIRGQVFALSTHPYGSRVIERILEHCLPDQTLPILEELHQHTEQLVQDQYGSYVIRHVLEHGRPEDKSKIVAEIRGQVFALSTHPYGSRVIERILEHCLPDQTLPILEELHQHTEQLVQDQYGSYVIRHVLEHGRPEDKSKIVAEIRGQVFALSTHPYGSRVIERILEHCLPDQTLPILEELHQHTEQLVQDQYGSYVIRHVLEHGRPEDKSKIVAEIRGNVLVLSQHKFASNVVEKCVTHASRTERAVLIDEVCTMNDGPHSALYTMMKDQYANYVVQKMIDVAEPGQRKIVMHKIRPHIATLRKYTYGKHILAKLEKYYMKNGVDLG

[10] = target: T4, hPUF_MT(R5:C_13R)3(R6:U_13Y)3; test: EMSA; conditions: label: Alexa680 at 5' and 3'
T4 chain: T3 chain with E112R, S144N, R148Q, E184R, S216N, R220Q, E256R, S288N, R292Q

[11] = target: T5, hPUF_MT(R7_S12N,E16Q, R3→R5, R4→R6) (R7 repeat S12N,E16Q); test: EMSA; binds U exclusively; conditions: label: Alexa680 at 5' and 3'
T5 chain: T1 chain with S72N, R76Q, S252N, E256Q

hPUF_MT(R3→R5, R4→R6) [12] = target: T6, hPUF_MT(R3→R5, R4→R6); test: EMSA; binds G exclusively at R7 position; conditions: label: Alexa680 at 5' and 3'
T6 chain: T1 chain with S72N, R76Q

[13] = target: T7, hPUF_MT(R7_E16R, R3→R5, R4→R6) (R7 repeat E16R); test: EMSA; binds C and U; conditions: label: Alexa680 at 5' and 3'
T7 chain: T1 chain with S72N, R76Q, E256R

[14] = target: T8, hPUF_MT(1-2-5-6-5-6-5-6-5-6-7-8); test: EMSA; greater than MT(R3→R5, R4→R6); conditions: label: Alexa680 at 5' and 3'
T8 chain: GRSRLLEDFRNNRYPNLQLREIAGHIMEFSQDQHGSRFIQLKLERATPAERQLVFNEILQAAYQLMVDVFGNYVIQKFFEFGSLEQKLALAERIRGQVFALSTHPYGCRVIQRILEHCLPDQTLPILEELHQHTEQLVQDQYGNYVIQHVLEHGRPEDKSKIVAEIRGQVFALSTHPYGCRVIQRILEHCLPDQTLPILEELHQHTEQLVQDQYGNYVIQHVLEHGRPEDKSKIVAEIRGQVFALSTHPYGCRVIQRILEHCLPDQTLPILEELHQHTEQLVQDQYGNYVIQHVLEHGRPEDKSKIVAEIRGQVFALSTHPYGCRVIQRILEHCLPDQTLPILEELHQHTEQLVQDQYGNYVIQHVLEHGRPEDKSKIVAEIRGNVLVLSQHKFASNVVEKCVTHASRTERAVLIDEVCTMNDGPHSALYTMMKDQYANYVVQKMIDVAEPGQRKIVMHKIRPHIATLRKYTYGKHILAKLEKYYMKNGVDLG

hPUF_MT(R3→R5, R4→R6) [15] = target: T6, hPUF_MT(R3→R5, R4→R6); test: EMSA; binds U exclusively at R8 position; conditions: label: Alexa680 at 5' and 3'
[16] = target: T9, hPUF_MT(R8_N12S,Q16E, R3→R5, R4→R6) (R8 repeat N12S,Q16E); test: EMSA; binds G exclusively; conditions: label: Alexa680 at 5' and 3'
T9 chain: T1 chain with S72N, R76Q, N295S, Q299E

“CCAGAAUUGUGUGUGUAUUCG [OTS-2004 (Example 5-6)]” showed a binding signal (fold of R6 13Y protein) [1] of 3.

In the case of CCAGAAUUGGAGAGAUAUUCG [OTS-2008], the binding signal (fold of 13Y protein) [2] is reported as < 0.033.

CCAGAAUUGUCUCUCUAUUCG [OTS-2006] was tested, and the binding signal (fold of 13Y protein) [3] was 0.1.

For “CCAGAAUUGUGUGUGUAUUCG [OTS-2004 (Example 5-6, GU repeat)]”, the binding signal (fold weaker than (R5:G 13R)3(R6:U 13Y)3) [4] was 30.

CCAGAAUUGUAUAUAUAUUCG [OTS-1844] was tested, and the binding signal (fold of 13Y protein) [5] was < 0.033.

Molecule “CCAGAAUUGCACACAUAUUCG [OTS-2004 (Example 5-4)]” has a binding signal (fold of 13Y protein) [6] of 0.33.

CCAGAAUUGUAUACAUUCG (ssRNA) [OTS-2025]: binds [7]; no binding [8].

CCAGAAUUGCGCGCGUAUUCG (ssRNA) [OTS-2007]: binds [9].

CCAGAAUUGUCUCUCUAUUCG (ssRNA) [OTS-2006]: binds [10].

CCAGAAUUGUAUAAAUUCG (ssRNA) [OTS-2023]: no binding [7]; no binding [8].

CCAGAAUUCUAUAUAUUCG (ssRNA) [OTS-2033]: no binding [11]; no binding (hPUF_MT(R3→R5, R4→R6) [12]); binds [13].

CCAGAAUUGUAUAUAUAUAUUCG (ssRNA) [OTS-1924]: binds [14].

CCAGAAUGGUAUAUAUUCG (ssRNA) [OTS-2034]: no binding (hPUF_MT(R3→R5, R4→R6) [15]); binds [16].

CCAGAAUUAUAUAUAUUCG (ssRNA) [OTS-1754]: no binding (hPUF_MT(R3→R5, R4→R6) [12]).

CCAGAAUUGUAUAGAUUCG (ssRNA) [OTS-2024]: no binding [7]; binds [8].
